Data from patent publication US20080038256A1 (SEOUL NATIONAL UNIVERSITY INDUSTRY FOUNDATION, published 2008).
Where a chain is given by its changes, count along the chain named. Each block holds one binder with its values, some of them ahead of it.

Tests used:
[1] = target: T1, HGF/SF (hepatocyte growth factor/scatter factor) (UniProt P14210 32-728, limits assumed); test: SPR (BIAcore), HGF/SF immobilized
Method: (§1) The binding affinity of the anti-HGF/SF Fab humanized antibody to HGF/SF was determined by SPR (Surface plasmon Resonance) on a BIAcore device (BIAcore, Sweden).
(§2) Specifically, HGF/SF was immobilized on a carboxymethyldextran-modified (CM5) sensor chip (Biacore AB) using 10 mM sodium acetate buffer (pH 4.0) at a flow rate of 5 μl/min with an amine coupling kit (Biacore AB) in accordance with the instruction of the kit. Then 4 anti-HGF/SF Fabs and SFN 68 as a control dissolved in phosphate buffered saline (PBS, pH 7.4) containing 0.005% Tween 20 (Sigma) was injected on the chip at 25° C. for 2 min at a flow rate of 30 μl/min, respectively. The anti-HGF/SF Fab humanized antibody was diluted to a varying concentration in the range of 1.25 to 200 nM. The surface was regenerated with 1 M NaCl/50 mM NaOH. The kinetic rate constants (kₒₙ and koff) as well as the equilibrium dissociation constant (KD) were determined by using BIA evaluation software.

[2] = target: T1, HGF/SF (hepatocyte growth …); test: SPR (BIAcore), HGF/SF immobilized on CM5 chip, Fab injected
Method: as §1, §2

[3] = target: T1, HGF/SF (hepatocyte growth …); test: affinity examination of the HSFN 68 clones on HGF/SF, reference SFN68; method not named in this paragraph
[4] = target: T1, HGF/SF (hepatocyte growth …); test: competition ELISA: HGF/SF coated on the plate, cMET/Fc chimera as the blocked ligand mixed with the varied Fab, bound cMET/Fc detected with HRP anti-human Fc, Abs. at 450 nm, triplicates
Method: A 96-well microplate was coated with 1 μg/ml of HGF/SF and blocked by repeating the procedure of (2-2) of Example 2. Then 25 μl of 2 nM cMET/Fc chimera (R&D systems, USA) mixed with 25 μl of 0 to 200 nM HSFN 68-13 or SFN 68 dissolved in TBSB was added to the HGF/SF coated wells. The plate was incubated for at 37° C. 1 hour and washed with TBS-T. The amount of bound cMET/Fc chimera was assessed with HRP-conjugated rabbit anti-human Fc specific IgG (Pierce) using ultra-TMB substrate solution (Pierce) as a substrate. After 30 min incubation, optical density was measured at 450 nm. All experiments were performed in triplicates, and the average and standard deviation of the optical densities are listed in FIG. 5.

T1 sequence (P14210 32-728 limits assumed): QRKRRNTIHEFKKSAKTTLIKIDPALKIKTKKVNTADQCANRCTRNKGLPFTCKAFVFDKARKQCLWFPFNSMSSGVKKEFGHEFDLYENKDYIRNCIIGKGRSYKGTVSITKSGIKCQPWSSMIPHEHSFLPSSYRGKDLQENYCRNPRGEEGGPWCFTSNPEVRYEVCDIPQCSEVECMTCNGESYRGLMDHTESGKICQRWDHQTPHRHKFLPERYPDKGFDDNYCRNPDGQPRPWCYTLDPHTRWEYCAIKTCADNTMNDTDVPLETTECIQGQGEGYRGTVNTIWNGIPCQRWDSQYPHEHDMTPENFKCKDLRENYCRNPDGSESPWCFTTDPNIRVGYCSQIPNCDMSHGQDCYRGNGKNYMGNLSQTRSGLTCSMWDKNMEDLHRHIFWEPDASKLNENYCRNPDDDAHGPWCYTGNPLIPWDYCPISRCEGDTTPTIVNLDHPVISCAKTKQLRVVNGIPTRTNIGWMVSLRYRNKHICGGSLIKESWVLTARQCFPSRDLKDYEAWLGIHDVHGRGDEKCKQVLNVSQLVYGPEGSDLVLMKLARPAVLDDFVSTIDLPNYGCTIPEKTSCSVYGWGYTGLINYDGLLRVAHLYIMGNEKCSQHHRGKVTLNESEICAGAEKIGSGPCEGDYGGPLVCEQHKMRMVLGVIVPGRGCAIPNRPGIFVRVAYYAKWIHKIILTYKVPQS

B1: HSFN 68-13 Fab (Fab, V domains shown)
VH: QQQLVESGGGVVRPGGSLRLSCAASGFTFSTYYMSWVRQAPGKGLEWIGYIGTSSGTTYYANSVKGRFTISSDNAKNSVYLQMNSLRPEDTAVYYCARGLGRINLWGPGTLVTVSS
VL: ELQMTQSPSSLSASVGDRVTITCRASQSISTWLAWYQQKPGKAPKLLIYKASTLESGVPLRFSGGGSGTDFTLTISSLQSEDFATYFCQQSYSLPPTFGQGTKVEVKR
notes: also called anti-HGF/SF Fab humanized antibody
fold tighter affinity than SFN68 control [1]: ~6 fold | Kd [2]: 2.09 nM | kon [2]: 647000 M⁻¹ s⁻¹ | fold higher affinity than SFN68 [3]: ~6 fold | IC50 (read off the curve) [4]: ~2 nM

B4: HSFN 68-16 Fab (Fab, V domains shown)
VH: B1 VH with V11L, R13Q, V37I, K76Q, P108Q
VL: ELVMTQSPSTLSASVGDRVTITCRASQSISSWLAWYQQKPGKAPKLLIYKASTLESGVSSRFSGGGSGTEFTLTISSLQPDDFATYYCQQYSRYSGGTFGQGTKVEIRR
notes: Fab with human Ckappa and human CH1, expressed from pComb3X in E. coli HB2151
Kd [2]: 43.1 nM | kon [2]: 32400 M⁻¹ s⁻¹

Further lines, results first:

Kd [2]: 5.27 nM | kon [2]: 392000 M⁻¹ s⁻¹
B2: HSFN 68-27 Fab (Fab, V domains shown)
VH: B1 VH with Q2V, V11L, R13K, L18R, K76Q, P108Q
VL: ELQMTQSPSTLSASVGDRVTITCRASQSISSRLAWYQQKPGKAPKLLIYRASTLEGGVPSRFSGSGSGTEFTLTISGLQPDDFATYYCQQYSTFSPTFGQGTQVDIKR
notes: as for B4

Kd [2]: 10.6 nM | kon [2]: 106000 M⁻¹ s⁻¹
B3: HSFN 68-41 Fab (Fab, V domains shown)
VH: B1 VH with V11L, R13Q, I48V, P108Q
VL: B4 VL with V3Q, T10S, L11V, T22S, S28D, S30R, W32L, S59P, G65S, S77N
notes: as for B4
